From article PMC10397247

Assays:
Experiment in all cases: two-hybrid library CCNG1;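 further: natural log of median RNA to DNA barcode read ratio; higher means stronger binding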
4H72-bN = molecular target: T1, 4H72-bN
T1 chain: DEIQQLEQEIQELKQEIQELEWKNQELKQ

4H754-bN = molecular target: T2, 4H754-bN
T2 chain: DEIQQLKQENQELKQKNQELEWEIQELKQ

4H797-bN = molecular target: T3, 4H797-bN
T3 chain: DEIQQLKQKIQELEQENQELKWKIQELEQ

4H883-bN = molecular target: T4, 4H883-bN
T4 chain: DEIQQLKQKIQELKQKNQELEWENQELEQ

4H908-bN = molecular target: T5, 4H908-bN
T5 chain: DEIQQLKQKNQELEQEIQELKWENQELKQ

4H918-bN = molecular target: T6, 4H918-bN
T6 chain: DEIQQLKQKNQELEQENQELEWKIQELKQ

4H953-bN = molecular target: T7, 4H953-bN
T7 chain: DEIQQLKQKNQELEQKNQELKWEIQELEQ

4H967-bN = molecular target: T8, 4H967-bN
T8 chain: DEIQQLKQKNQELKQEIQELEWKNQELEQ

O13-bP = molecular target: T9, O13-bP
T9 chain: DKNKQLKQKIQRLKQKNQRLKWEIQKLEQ

4H932-bA = molecular target: T10, 4H932-bA
T10 chain: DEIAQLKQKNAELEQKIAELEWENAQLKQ

4H949-bA = molecular target: T11, 4H949-bA
T11 chain: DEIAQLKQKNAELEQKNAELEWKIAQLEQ

P1bHq = molecular target: T12, P1bHq
T12 chain: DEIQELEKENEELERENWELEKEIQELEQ

4H3041-bN = molecular target: T13, 4H3041-bN
T13 chain: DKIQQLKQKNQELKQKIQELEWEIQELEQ

4H3297-bN = molecular target: T14, 4H3297-bN
T14 chain: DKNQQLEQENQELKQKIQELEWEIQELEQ

4H3364-bN = molecular target: T15, 4H3364-bN
T15 chain: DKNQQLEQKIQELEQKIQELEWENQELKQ

4H3381-bN = molecular target: T16, 4H3381-bN
T16 chain: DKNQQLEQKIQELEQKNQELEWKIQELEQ

4H349-bN = molecular target: T17, 4H349-bN
T17 chain: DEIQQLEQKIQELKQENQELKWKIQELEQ

4H56-bN = molecular target: T18, 4H56-bN
T18 chain: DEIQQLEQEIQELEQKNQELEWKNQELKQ

4H730-bN = molecular target: T19, 4H730-bN
T19 chain: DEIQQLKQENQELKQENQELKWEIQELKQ

4H796-bN = molecular target: T20, 4H796-bN
T20 chain: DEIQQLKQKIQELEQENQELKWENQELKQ

4H932-bN = molecular target: T21, 4H932-bN
T21 chain: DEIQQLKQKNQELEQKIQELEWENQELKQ

4H949-bN = molecular target: T22, 4H949-bN
T22 chain: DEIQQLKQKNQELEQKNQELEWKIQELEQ

DEIQQLEQEIQELKQEIQELEWKNQELKQ [4H72-bN]
interaction score (4H72-bN): 0.334
interaction score (4H754-bN): -1.48
interaction score (4H797-bN): 0.632
interaction score (4H883-bN): 0.619
interaction score (4H908-bN): -0.234
interaction score (4H918-bN): 0.713
interaction score (4H953-bN): -0.727
interaction score (4H967-bN): -0.25
interaction score (O13-bP): -0.283

DEIAQLKQKNAELEQKIAELEWENAQLKQ [4H932-bA]
interaction score (4H932-bA): 0.694
interaction score (4H949-bA): -0.925
interaction score (P1bHq): -0.886

DKIQQLKQKNQELKQKIQELEWEIQELEQ [4H3041-bN]
interaction score (4H3041-bN): 0.754
interaction score (4H3297-bN): -2.23
interaction score (4H3364-bN): -1.42
interaction score (4H3381-bN): -1.06
interaction score (4H349-bN): -1.54
interaction score (4H56-bN): -0.997
interaction score (4H730-bN): -1.37
interaction score (4H796-bN): -1.35
interaction score (4H932-bN): -1.42
interaction score (4H949-bN): -1.33
interaction score (P1bHq): 0.154
